Values of other authors as cited in publication PMC9884707.

Biological target: SHARPIN PH domain (20-121) (Homo sapiens) (UniProt Q9H0F6)

In the case of “SHARPIN PH domain (20-121) (from UniProt Q9H0F6)”, the Kd is listed as 124 µM.
